Here are results for one molecule from patent US20190119379A1 (BAYLOR COLLEGE OF MEDICINE, published 2019).

The target in this experiment is T1, human CD47 on OV10 315 cells (human, UniProt Q08722 19-323).
T1 construct: whole, on cells
The experiment is described as follows: FACS for Fc on YFP-negative OV10 315 cells 24 h after infection with SIRPα-Fc-VV.

T1 sequence (Q08722 19-323): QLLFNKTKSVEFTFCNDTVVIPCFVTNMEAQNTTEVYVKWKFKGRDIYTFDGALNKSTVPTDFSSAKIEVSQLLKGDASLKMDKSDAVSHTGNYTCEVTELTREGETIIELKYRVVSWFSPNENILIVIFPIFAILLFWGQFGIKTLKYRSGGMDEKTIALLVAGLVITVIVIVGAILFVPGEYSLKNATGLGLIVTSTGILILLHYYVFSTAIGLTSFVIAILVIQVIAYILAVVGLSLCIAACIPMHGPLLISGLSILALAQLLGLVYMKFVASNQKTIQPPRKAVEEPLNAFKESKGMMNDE

B1: SIRPα-IgG4 Fc with derivative (CV1) of SIRPα ectodomain (Fc fusion)
chain: EEELQIIQPDKSVLVAAGETATLRCTITSLFPVGPIQWFRGAGPGRVLIYNQRQGPFPRVTTVSDTTKRNNMDFSIRIGNITPADAGTYYCIKFRKGSPDDVEFKSGAGTELSVRAKPSAAAPPCPPCPAPEFLGGPSVFLFPPKPKDTLMISRTPEVTCVVVDVSQEDPEVQFNWYVDGVEVHNAKTKPREEQFNSTYRVVSVLTVLHQDWLNGKEYKCKVSNKGLPSSIEKTISKAKGQPREPQVYTLPPSQEEMTKNQVSLTCLVKGFYPSDIAVEWESNGQPENNYKTTPPVLDSDGSFFLYSRLTVDKSRWQEGNVFSCSVMHEALHNHYTQKSLSLSPGK
notes: Secreted by tumor cells transduced with the lentiviral vector pCDH.CMV.SIRPα-Fc.EF1.GFPpuro or infected with SIRPα-Fc-VV; It was never purified; also called SIRPα-Fc; SIRPα-FC
Regarding B1, the binding result is listed as “binds”.
